Assay: soluble on expression in E. coli; label from the status in PepcDB or PDB records

Sequence | soluble on expression in E. coli
MSLTDKMQSLALAPVGNLDSYIRAANAWPMLSADEERALAEKLHYHGDLEAAKTLILSHLRFVVHIARNYAGYGLPQADLIQEGNIGLMKAVRRFNPEVGVRLVSFAVHWIKAEIHEYVLRNWRIVKVATTKAQRKLFFNLRKTKQRLGWFNQDEVEMVARELGVTSKDVREMESRMAAQDMTFDLSSDDDSDSQPMAPVLYLQDKSSNFADGIEDDNWEEQAANRLTDAMHGLDERSQDIIRARWLDEDNKSTLQELADRYGVSAERVRQLEKNAMKKLRAAIEAEGHHHHHH | soluble
MSLKNQLGQLALEQAKTFGGKLEVQPKVDIKTKHDLSIAYTPGVASVSSAIAKDKTLAYDLTTKKNTVAVISDGTAVLGLGDIGPEAAMPVMEGKAALFKAFAGVDAIPIVLDTKDTEEIISIVKALAPTFGGINLEDISAPRCFEIEQRLIKECHIPVFHDDQHGTAIVVLAAIFNSLKLLKKSLDEVSIVVNGGGSAGLSITRKLLAAGATKVTVVDKFGIINEQEAAQLAPHHLDIAKVTNREFKSGTLEDALEGADIFIGVSAPGVLKAEWISKMAARPVIFAMANPIPEIYPDEALEAGAYIVGTGRSDFPNQINNVLAFPGIFRGALDARAKTITVEMQIAAAKGIASLVPDDALSTTNIIPDAFKEGVAEIVAKSVRSVVLKSEGHHHHHH | soluble
PEQEEEILGSDDDEQEDPNDYCKGGYHLVKIGDLFNGRYHVIRKLGWGHFSTVWLSWDIQGKKFVAMKVVKSAEHYTETALDEIRLLKSVRNSDPNDPNREMVVQLLDDFKISGVNGTHICMVFEVLGHHLLKWIIKSNYQGLPLPCVKKIIQQVLQGLDYLHTKCRIIHTDIKPENILLSVNEQYIRRLAAEATEWQRSGAPPPSGSAVSTAPATAGNFLVNPLEPKNAEKLKVKIADLGNACWVHKHFTEDIQTRQYRSLEVLIGSGYNTPADIWSTACMAFELATGDYLFEPHSGEEYTRDEDHIALIIELLGKVPRKLIVAGKYSKEFFTKKGDLKHITKLKPWGLFEVLVEKYEWSQEEAAGFTDFLLPMLELIPEKRATAAECLRHPWLNS | soluble
MGSDKIHHHHHHMRTVYAIVVNYNNFDDTAECIDSLLNQTYPCRVVVVDNGSEREVIEKLRRKYPQVEMLELGENRGYAGGCNAGIRAVIDKADYVLISNNDVVFERDAVERMVSEMEEDETIAACQPVVKYYGDERIWSAGTRIFLGYPVLHLKNKMVEVEISFDSPFGLVGCAMLIRSSALKDVGFFDEELFMMHEETEWCIRARKKGYRLAVCKAVVRHKVSASLGLFSPHYLYYTARNWLIVARRAGKAMFFYALITEPLRVLYYLVRLKRKGDIIQYLKGVVHGILSRKGRRC | not soluble
PGRLHNAIVRPRVLDLLQHATCYKLVLFRSPAGYGKTTMAAQWLADKPNLGWYSIDDSDNDPFRFMNYLLQAINKATHN | not soluble
MGHHHHHHSHKPVPWVEKYRPKCVDEVAFQEEVVAVLKKSLEGADLPNLLFYGPPGTGKTSTILAAARELFGPELFRLRVLELNASDERGIQVVREKVKNFAQLTVSGSRSDGKPCPPFKIVILDEADSMTSAAQAALRRTMEKESKTTRFCLICNYVSRIIEPLTSRCSKFRFKPLSDKIQQQRLLDIAKKENVKISDEGIAYLVKVSEGDLRKAITFLQSATRLTGGKEITEKVITDIAGVIPAEKIDGVFAACQSGSFDKLEAVVKDLIDEGHAATQLVNQLHDVVVENNLSDKQKSIITEKLAEVDKCLADGADEHLQLISLCATVMQQLSQNC | not soluble
MGSDKIHHHHHHMVGIVLASHGGFADGIAESAQMLFGPQDNFAHVILKPSEGPEDIKGKMNEAIASFADQEEVLFLVDLWGGTPFNQANGLLDGHDKWAIVSGLNLPMVVEALTQRMINDKATAQDIATAIIKPAKDGIKTKPESLMPAEEKAAAPAAAAGAPKEAIPEGTVLGDGHIKIVGARIDSRLLHGQVVTGWIPSLHPDRVIVVSDKIAKDDLRKSMIREAAPAGTVAHTVPLEKMKEIYEDPRFGTTHAFLLFENPEDALQTIKNGVDIKTLNVGSMSYSKGKVNANNVLSMDQTDVDTFRELEKMGIKFDVRKVPSDNPENMDSILKKAQSLLDEQSSSEKRS | not soluble
MDDATEQEVFNRMQMTQFEEKRFELRETCPKCHQILSSELSRLWHQFVHMDAYNGFLDGKFQIQLPDFEFVRSNVIPCPFSTCSLLFLDLIDARFHYLLEHQSCQLFCCGVRFSDYKTALEHLQGTGSVETEAWDQQKHFLKPVYICNCCNRTWSSRSEYVAHLHGRDHMCPDPVCKYIFETNEKCIRHFFEQHYKHLFLDSRHLLLNYKDHMCVPHVNADFGTTRGFRATWQARIVNFLIEKS | not soluble
